Target: recombinant rabbit PAPPA (rabbit) (UniProt G1SFH7)
Assay: SPR, Biacore 8K+, mAb captured on PrismA chip, PAPPA as analyte, 37 C, mean of n=3

B1: TPP-12744 (antibody, human IgG1, kappa, V domains shown)
VH: QVQLVQSGAEVKKPGASVKVSCKASGYTFTSYAMHWVRQAPGQRLEWMGWMNAGTGATKSSQKFQGRVTITRDTSASTAYMELSSLRSEDTAVYYCARGPSMETPTTFGMDVWGQGTTVTVSS
VL: DIQMTQSPSSVSASVGDRVTITCRASQGISRWLAWYQQKPGKAPKLLIYAASSLQSGVPSRFSGSGSGTDFTLTISSLQPEDFATYYCQQENAYPFTFGGGTKVEIKR
For B1, the Kd was 0.17 nM, the koff was 0.000559 s⁻¹ and the kon was 3.28e+06 M⁻¹ s⁻¹.
